Assay results: patent US20110039770A1 (PHARMAGAP, published 2011)

Key:
[1] = target: T1, PKC-δ (purified isoform); test: competitive ELISA, coated purified PKC-δ, vs anti-PKC δ (SC-213); PRE 50 µM
T1 construct: also called PKC-delta
Protocol: (§1) Greiner 96 well ELISA plates were coated with the appropriate PKC isoform diluted in PBSN (PBS with Calcium/Magnesium+0.05% Sodium azide w/w). 50 μL/well at 250 ng/mL was used. Control wells contained PBSN only. Plates were incubated overnight at 4° C.
(§2) The plates were washed 3 times with 200 μL of dH₂O per well, then 100 μL of blocking solution was added per well and the plate incubated for 1 h at 37° C. The washing steps with dH₂O were repeated and 50 μL of the appropriate PRE solution (PRE stock solution [20 mM in DMSO] diluted in PBSN) was added and the plate incubated for 1 h at room temperature.
(§3) 50 μL of 1:1000 dilution of Alkaline Phosphatase (AP) conjugated antibody (anti-rabbit for all except zeta, which was anti-goat) was then added and the plate incubated for 1 h at room temperature. Washing with dH₂O was then repeated. Finally, 100 μL of pNPP solution in pNPP buffer (2 mM MgCl₂, 100 mM Sodium bicarbonate in water, pH 9.8) was added to all wells and incubated for 8 minutes for α, βI, βII ε, and ζ, or for 15-20 mins for δ (until sufficient coloration is observed). The reaction was stopped by addition of Stop solution (2N NaOH) and the absorbance at 405 nm was read on a Galaxy Plate reader.

[2] = target: T1, PKC-δ (purified isoform); test: competitive ELISA, coated purified PKC-δ, vs anti-PKC δ (SC-213); PRE 100 µM
Protocol: as §1, §2, §3

[3] = target: T2, PKC-βII (purified isoform) (Homo sapiens (Human), UniProt P05771 2-621); test: competitive ELISA, coated purified PKC-βII, vs anti-PKC βII (SC-210); PRE 50 µM
T2 construct: also called PKC-beta II; PKC beta 2
Protocol: as §1, §2, §3

[4] = target: T3, PKC-α (purified isoform) (Homo sapiens (Human), UniProt P17252 2-672); test: competitive ELISA, coated purified PKC-α, vs anti-PKC α (SC-208); PRE 200 µM
T3 construct: also called purified PKC-alpha; commercially purified PKC-alpha
Protocol: as §1, §2, §3

[5] = target: T3, PKC-α (purified isoform); test: competitive ELISA, coated purified PKC-α, vs anti-PKC α (SC-208); PRE 100 µM
Protocol: as §1, §2, §3

[6] = target: T2, PKC-βII (purified isoform); test: competitive ELISA, coated purified PKC-βII, vs anti-PKC βII (SC-210); PRE 100 µM
Protocol: as §1, §2, §3

[7] = target: T2, PKC-βII (purified isoform); test: competitive ELISA, coated purified PKC-βII, vs anti-PKC βII (SC-210); PRE 200 µM
Protocol: as §1, §2, §3

[8] = target: T3, PKC-α (purified isoform); test: competitive ELISA, coated purified PKC-α, vs anti-PKC α (SC-208); PRE 50 µM
Protocol: as §1, §2, §3

[9] = target: T1, PKC-δ (purified isoform); test: competitive ELISA, coated purified PKC-δ, vs anti-PKC δ (SC-213); PRE 200 µM
Protocol: as §1, §2, §3

T1 sequence (Q05655 whole entry, stated change not applied, canonical isoform): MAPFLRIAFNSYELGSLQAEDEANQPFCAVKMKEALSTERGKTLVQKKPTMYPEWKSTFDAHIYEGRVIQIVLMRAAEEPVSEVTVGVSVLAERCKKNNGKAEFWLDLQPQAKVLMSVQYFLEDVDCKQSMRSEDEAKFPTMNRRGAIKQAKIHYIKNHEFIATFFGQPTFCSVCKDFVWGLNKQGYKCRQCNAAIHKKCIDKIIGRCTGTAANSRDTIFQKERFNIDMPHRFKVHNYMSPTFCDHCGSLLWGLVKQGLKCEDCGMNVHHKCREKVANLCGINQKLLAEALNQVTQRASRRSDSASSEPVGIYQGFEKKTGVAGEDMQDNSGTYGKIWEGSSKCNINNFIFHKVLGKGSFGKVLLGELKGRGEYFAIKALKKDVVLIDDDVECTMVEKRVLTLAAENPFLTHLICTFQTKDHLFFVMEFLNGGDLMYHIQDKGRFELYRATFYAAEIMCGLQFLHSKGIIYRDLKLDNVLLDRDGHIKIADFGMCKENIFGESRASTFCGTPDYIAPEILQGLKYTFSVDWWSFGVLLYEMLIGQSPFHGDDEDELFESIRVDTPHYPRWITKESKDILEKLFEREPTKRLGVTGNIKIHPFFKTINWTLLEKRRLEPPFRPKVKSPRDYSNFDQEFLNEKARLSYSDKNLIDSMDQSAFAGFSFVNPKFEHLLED
T2 sequence (P05771 other isoform, or with tags, fused parts or gaps limits assumed): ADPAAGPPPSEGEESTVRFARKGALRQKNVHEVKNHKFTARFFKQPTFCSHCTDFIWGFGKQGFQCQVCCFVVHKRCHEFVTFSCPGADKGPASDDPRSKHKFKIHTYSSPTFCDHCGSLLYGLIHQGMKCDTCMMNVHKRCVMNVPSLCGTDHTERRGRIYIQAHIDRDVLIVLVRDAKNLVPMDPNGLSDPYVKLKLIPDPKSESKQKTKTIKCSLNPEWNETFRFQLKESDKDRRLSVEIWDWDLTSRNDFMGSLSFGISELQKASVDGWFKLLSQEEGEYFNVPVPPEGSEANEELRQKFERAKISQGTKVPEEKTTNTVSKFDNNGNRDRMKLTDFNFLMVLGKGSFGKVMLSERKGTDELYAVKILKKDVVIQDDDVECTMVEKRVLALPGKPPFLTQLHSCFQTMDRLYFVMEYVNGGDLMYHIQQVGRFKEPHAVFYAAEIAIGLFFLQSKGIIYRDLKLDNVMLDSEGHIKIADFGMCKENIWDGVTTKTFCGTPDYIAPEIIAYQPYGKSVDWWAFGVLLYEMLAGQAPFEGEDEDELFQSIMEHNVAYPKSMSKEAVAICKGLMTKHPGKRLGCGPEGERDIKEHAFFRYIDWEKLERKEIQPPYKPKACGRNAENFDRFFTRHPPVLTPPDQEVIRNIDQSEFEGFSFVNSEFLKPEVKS

Row | relative binding capacity (100-%n, DMSO subtracted) [1] | relative binding capacity (100-%n, DMSO subtracted) [2] | relative binding capacity (100-%n, DMSO subtracted) [3] | relative binding capacity (100-%n, DMSO subtracted) [4] | relative binding capacity (100-%n, DMSO subtracted) [5] | relative binding capacity (100-%n, DMSO subtracted) [6] | relative binding capacity (100-%n, DMSO subtracted) [7] | relative binding capacity (100-%n, DMSO subtracted) [8] | relative binding capacity (100-%n, DMSO subtracted) [9] | Binder
1 | 3.06% | 0% | 5.42% | 6.59% | 6.72% | 11.1% | 2.59% | 0% | 0% | Ac-ISIGILQNADK-NH2 (also called peptide PRE 7) [PRE 7]
2 | 6.96% | 3.38% | 1.11% | 0% | 0% | 0% | 0% | 0% | 6.68% | ILEDKGGDAQNLIGISI (also called peptide PRE 8) [PRE 8]
